For experiment [1], the target named is T1, recombinant human Pro-Factor D (human, UniProt P00746 20-253).
T1 construct: also used for the endogenous pro-Factor D detected in 3MC patient serum; also called pro CFD; hPro-CFD
In words: sandwich ELISA: coat goat polyclonal AF1824; 2 ug/mL recombinant CFD spiked into buffer or 10% Factor D-depleted serum; detection with 14A11 hybridoma supernatant diluted in half, HRP goat anti-mouse IgG Fc; OD450. For orientation: In an ELISA, binding on a coated surface is turned into a signal by an enzyme label.
Procedure: ELISA plates were coated overnight at 4° C. with polyclonal goat anti-human CFD AF1824 (R&D Systems). Plate wells were washed, blocked, and washed again. Normal human serum pool, normal human plasma pool or Factor D-depleted human serum were diluted 10-fold in assay buffer (PBS with 1% BSA and 0.05% Tween 20, PBST-BSA), either un-spiked or spiked with 2 μg/mL recombinant pro-(pro CFD) or mature-factor D (mature CFD). These matrices, including a buffer control with or without recombinant protein spiked in, were incubated for 60 minutes at room temperature, and then washed. […] The detection antibodies were incubated for one hour at room temperature and washed, then developed with a horseradish peroxidase (HRP)-labeled goat polyclonal to mouse IgG Fc (Jackson ImmunoResearch).

Experiment [2] deals with T2, recombinant human mature Factor D (human, UniProt P00746 26-253).
T2 construct: also called mature CFD; hCFD
Briefly: sandwich ELISA: coat 3C5 (human IgG4), sample titrated (ug/ml Df), detection 14A11 (mouse IgG2a), HRP donkey anti-mouse IgG; OD450.
Source text: (§1) An HRP-labeled F(ab′)₂ fragment donkey anti-mouse IgG H&L antibody (Jackson ImmunoResearch) was used to signal the detection antibody, followed by development with TMB substrate (ThermoFisher).

Experiment [3] concerns the target T2, recombinant human mature Factor D. Briefly: sandwich ELISA: coat 12H10 (human IgG4), sample titrated (ug/ml Df), detection 14A11 (mouse IgG2a), HRP donkey anti-mouse IgG; OD450.
Source text: as §1
The target of experiment [4] is T3, recombinant cynomolgus mature Factor D (cynomolgus monkey).
T3 construct: mature; not tied by words to this reagent; also called cy Mat CFD; cynomolgus recombinant mature Factor D
Described as above.
Source text: as §1

Experiment [5] deals with T2, recombinant human mature Factor D. In words: sandwich ELISA: coat 3C5 (human IgG4) 3 ug/mL, sample in 3-fold dilutions (ug/ml Df), detection 14A11 (mouse IgG2a) 3 ug/mL, HRP donkey anti-mouse IgG; OD450.
Procedure: as §1
(§2) Wells were then washed three times. […] The plates were washed three times. 100 μL of Horseradish Peroxidase labeled F(ab′)2 Fragment Donkey anti-Mouse IgG H&L antibody (Jackson ImmunoResearch), diluted 1:30,000, was added to each well and incubated for one hour at room temperature. Wells were then washed three times.
In experiment [6] the target is T3, recombinant cynomolgus mature Factor D. Described as above.
Procedure: as §1, §2
Experiment [7] deals with T4, purified (from human plasma) human Factor D (human, UniProt P00746 26-253).
T4 construct: also called hu purif; CFD; purified human complement factor D (Complement Technologies)
Described as above.
Procedure: as §1, §2

Experiment [8] has as its target T3, recombinant cynomolgus mature Factor D. Briefly: sandwich ELISA standard curve: coat 3C5 (human IgG4) 3 ug/mL, recombinant cynomolgus mature Factor D titrated, detection 14A11 3 ug/mL, HRP donkey anti-mouse IgG; OD450.
Source text: After washing, an HRP-labeled secondary antibody (HRP-labeled F(ab′)2 Fragment Donkey anti-Mouse IgG H&L antibody (Jackson ImmunoResearch)) was used to signal the detection antibody, followed by development with TMB (ThermoFisher). Samples were interpolated from a 4-parameter logistics curve of cynomolgus recombinant mature Factor D dilutions.

B1: 14A11, hybridoma supernatant (antibody, V domains shown)
VH: QITLKESGPGILQSSQTLSLTCSFSGVSLTTSGMGVSWIRQPSGKGLEWLAHIYWDDEKHYHPSLKSRLTISKDASRNQVFFRILSVDTADTATYYCALRYYGYRSFMDYWGQGTSVTVSS
VL: DVLMTQSPLSLPVSLGDQASIFCRSNQSIVHSNGNTYFEWYLQKPGQSPKLLIYKVSNRFSGVPDRFSGSGSGTDFTLRISRVEAEDLGIYYCFQGSHVPPTFGGGTKLEIKR
notes: Mouse hybridoma antibody
On to B1, for which the binding result in experiment [1] is reported as “no binding”.

B2: 14A11, mouse IgG2a Fc version (antibody)
heavy: QITLKESGPGILQSSQTLSLTCSFSGVSLTTSGMGVSWIRQPSGKGLEWLAHIYWDDEKHYHPSLKSRLTISKDASRNQVFFRILSVDTADTATYYCALRYYGYRSFMDYWGQGTSVTVSSAKTTAPSVYPLAPVCGDTTGSSVTLGCLVKGYFPEPVTLTWNSGSLSSGVHTFPAVLQSDLYTLSSSVTVTSSTWPSQSITCNVAHPASSTKVDKKIEPRGPTIKPCPPCKCPAPNLLGGPSVFIFPPKIKDVLMISLSPIVTCVVVDVSEDDPDVQISWFVNNVEVHTAQTQTHREDYNSTLRVVSALPIQHQDWMSGKEFKCKVNNKDLPAPIERTISKPKGSVRAPQVYVLPPPEEEMTKKQVTLTCMVTDFMPEDIYVEWTNNGKTELNYKNTEPVLDSDGSYFMYSKLRVEKKNWVERNSYSCSVVHEGLHNHHTTKSFSRTPGK
light: DVLMTQSPLSLPVSLGDQASIFCRSNQSIVHSNGNTYFEWYLQKPGQSPKLLIYKVSNRFSGVPDRFSGSGSGTDFTLRISRVEAEDLGIYYCFQGSHVPPTFGGGTKLEIKRADAAPTVSIFPPSSEQLTSGGASVVCFLNNFYPKDINVKWKIDGSERQNGVLNSWTDQDSKDSTYSMSSTLTLTKDEYERHNSYTCEATHKTSTSPIVKSFNRNEC
notes: Recombinant, mouse IgG2a and mouse kappa constant regions; also called mAb 14A11; detection antibody 14A11 (anti-human/cyno mature-Factor D-specific)
For B2, the EC50 (read off the curve) (as a rule, the concentration that produces a half-maximal response) in experiment [2] is ~0.02 µg/mL; in experiment [3], ~0.04 µg/mL; in experiment [4], ~0.08 µg/mL; in experiment [5], ~0.03 µg/mL; in experiment [6] it was ~0.06 µg/mL; in experiment [7] it was ~0.04 µg/mL. The “EC50 (read off the curve)” value in experiment [8] is ~0.06 µg/mL.

(Values after patent US20250179160A1 (OMEROS, published 2025).)
